Key:
Test in all cases: BLI
[1] = molecular target: Biotinylated NH-GrgA (Chlamydia trachomatis) (UniProt O84512)
[2] = molecular target: N-terminally His-tagged GrgA, full length (Chlamydia trachomatis) (UniProt O84512)
[3] = molecular target: NH-GrgAΔ1-64 (Chlamydia trachomatis) (UniProt O84512)
[4] = molecular target: T1, N-terminally His-tagged GrgA, full length (Chlamydia trachomatis, UniProt O84512 1-288)
T1 sequence (looked up): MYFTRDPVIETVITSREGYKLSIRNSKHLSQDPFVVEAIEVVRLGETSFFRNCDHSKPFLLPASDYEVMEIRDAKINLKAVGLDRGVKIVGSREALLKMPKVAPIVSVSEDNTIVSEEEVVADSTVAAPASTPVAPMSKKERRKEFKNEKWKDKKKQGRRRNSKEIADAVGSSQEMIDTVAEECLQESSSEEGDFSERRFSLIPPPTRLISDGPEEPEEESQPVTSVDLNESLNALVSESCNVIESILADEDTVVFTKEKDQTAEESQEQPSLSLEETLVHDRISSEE

[5] = molecular target: N-terminally poly-His-tagged C. trachomatis σ^28 (C. trachomatis)
CH-σ^66 = molecular target: T2, CH-σ^66 (C. trachomatis, UniProt P18333 1-571)
T2 sequence (looked up): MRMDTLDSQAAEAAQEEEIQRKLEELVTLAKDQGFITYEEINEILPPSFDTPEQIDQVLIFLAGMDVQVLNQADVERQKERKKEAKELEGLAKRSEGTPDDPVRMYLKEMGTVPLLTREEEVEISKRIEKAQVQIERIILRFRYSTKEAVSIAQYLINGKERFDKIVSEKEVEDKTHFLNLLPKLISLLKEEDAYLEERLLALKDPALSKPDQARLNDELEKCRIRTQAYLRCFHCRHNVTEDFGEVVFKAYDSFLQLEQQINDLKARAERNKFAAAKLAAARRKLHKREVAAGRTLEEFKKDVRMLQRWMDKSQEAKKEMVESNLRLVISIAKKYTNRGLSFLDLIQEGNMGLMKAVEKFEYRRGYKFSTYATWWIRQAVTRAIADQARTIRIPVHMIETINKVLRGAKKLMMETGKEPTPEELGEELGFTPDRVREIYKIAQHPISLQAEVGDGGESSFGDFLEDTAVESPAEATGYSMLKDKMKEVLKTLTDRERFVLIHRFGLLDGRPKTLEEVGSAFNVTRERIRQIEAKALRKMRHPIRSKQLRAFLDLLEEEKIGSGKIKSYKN

Chain of N-terminally poly-His-tagged C. trachomatis σ^28 (C. trachomatis) (B0B8K1 whole entry): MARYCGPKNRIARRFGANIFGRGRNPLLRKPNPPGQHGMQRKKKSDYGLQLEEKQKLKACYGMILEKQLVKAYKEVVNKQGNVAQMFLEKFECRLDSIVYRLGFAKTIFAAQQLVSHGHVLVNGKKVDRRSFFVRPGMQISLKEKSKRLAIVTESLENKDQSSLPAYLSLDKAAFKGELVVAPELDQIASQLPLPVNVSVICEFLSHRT

Question: NH-σ^28ΔNL (domain or fragment) was tested. Which fold higher KD than full length NH-σ^28 [1] did it give?
Answer: 345 fold

Question: “N-terminally strep-tagged σ^28 (natural protein)” was tested. Which fold higher KD than the NH-GrgA-CS-σ^66 interaction [2] did it give?
Answer: 32 fold

Question: What about the fold decrease in ka against full length NH-GrgA [3] of the same molecule?
Answer: 3 fold

Question: What about the fold increase in KD against full length NH-GrgA [3] of the same molecule?
Answer: 4.8 fold

Question: What about the fold increase in kd against full length NH-GrgA [3] of the same molecule?
Answer: 2 fold

Question: For NH-σ^28ΔR2 (natural protein), which fold higher KD than full length NH-σ^28 [1] is on record?
Answer: 177 fold

Question: And the fold reduction in ka against full length NH-σ^28 [1]?
Answer: 2 fold

Question: What does the source list for NH-σ^28ΔR3 (natural protein)?
Answer: fold higher KD than full length NH-σ^28 [1]: 7 fold; fold increase in ka against full length NH-σ^28 [1]: 3.5 fold

Question: NH-σ^28ΔR4 (natural protein) was tested. Which fold higher KD than full length NH-σ^28 [1] did it give?
Answer: 7 fold

Question: What about the percent increase in ka against full length NH-σ^28 [1] of the same molecule?
Answer: 50%

B1: CS-σ^66 (natural protein, C. trachomatis, UniProt P18333 1-571, looked up)
chain: T2 sequence (looked up)
Question: Which “fold higher ka than the NS-σ^28 analyte on NH-GrgA” value [4] does the source give for B1 here?
Answer: 25 fold

Question: And the “fold increase in kd over the NS-σ^28 analyte on NH-GrgA” value [4]?
Answer: 3 fold

B2: N-terminally strep-tagged GrgA (natural protein, Chlamydia trachomatis, UniProt O84512 1-288, looked up)
chain: T1 sequence (looked up)
Question: What does the source list for B2?
Answer: fold higher KD than the CH-σ^66-NS-GrgA interaction [5]: 28 fold; fold higher ka than for NH-σ^28 as ligand (CH-σ^66): 3.7 fold; fold slower dissociation (kd) than from NH-σ^28 (CH-σ^66): 6 fold

— article doi:10.1101/322701 (bioRxiv, 2018)
